Here are results for one substance from article doi:10.1101/583088.

For the assay, the target named is 3-methylaspartate ammonia lyase from Citrobacter amalonaticus (Citrobacter amalonaticus) (UniProt O66145). Briefly: SEC. In general terms: SEC sorts molecules by how far they enter the pores of the column.

For the substance “3-methylaspartate ammonia lyase from Citrobacter amalonaticus (from UniProt O66145 1-413) (enzyme)”, the stoichiometry N came to 2.

One may read the stoichiometry N as the number of molecules, sites or subunits per partner or assembly.
